{"source": "patent US20230212319A1", "about": "“NOVEL ANTIGEN BINDING DOMAINS AND SYNTHETIC ANTIGEN RECEPTORS INCORPORATING THE SAME” (University of Southern California, priority 2020, published 2023)", "format_in_all_cases": "cell-based", "key": {"RAJI cells": {"system": "RAJI cells", "assay": "JNG assay, co-culture with RAJI cells", "summary_of_the_method": "(§1)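 Read-out is NFAT-driven GFP measured by flow cytometry after ~4–18 h co-culture of SAR-expressing JNG cells with target cells (E:T about 1:2). SARs were introduced by lentiviral spinfection and selected with puromycin or blasticidin when possible; scores (+/- to 5+ ≈ 5–50% GFP+) are relative to parental JNG cells.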"}, "RAJI-CD19-KO cells": {"system": "RAJI-CD19-KO cells", "assay": "JNG assay, co-culture with RAJI-CD19-KO cells", "conditions": "for NFAT-GFP ASSAY: Raji-CD19-KO: co-culture with Raji-CD19-KO", "protocol": "Cellular supernatant is collected and assayed for the induction of cytokines (e.g., IL2).\nJNG (Jurkat cells expressing EGFP under an NFAT promoter) were infected with lentiviral vectors encoding different single chain and multi-chain SARs by spinfection in the presence of 8 µg/ml of Polybrene® (Sigma, Catalog no. H9268). The Jurkat-NFAT-GFP cells are engineered in such a way that the IL-2 promoter, which carries NFAT binding sites, is cloned upstream of the GFP gene. These cells have been used to study signaling via TCR and CAR. The different SARs were stably expressed in Jurkat NFAT-GFP cells by lentiviral mediated gene transfer, followed by selection with puromycin or blasticidin. No drug selection was used in case the construct lacked an antibiotic resistance gene. The SAR-expressing Jurkat-NFAT-GFP cells were cocultured with the target cells at E:T ratio of approximately 1:2 for approximately 4 hours to 18 hours. When the interaction between SIRs and their target antigen results in activation of the NFAT pathway, GFP expression is induced. […] GFP expression was monitored by FACS analysis. The Jurkat-NFAT-GFP (parental) cells were used as control. The structure of different constructs can be determined based on their names. […] The sequence of the other constructs in the table can be similarly determined from their names and by referring to the different Tables of this disclosure that provide the names and SEQ ID NO of the different modules. Alternatively, the composition and modular architecture of the different SAR constructs can be determined from their sequences by bioinformatics tools, including using nucleic acid and amino acids homology searches. A SAR is considered positive in the assay in case the SAR expressing Jurkat-NFAT-GFP cells show greater % GFP positive cells when cultured with the target cell line as compared to parental Jurkat-NFAT-GFP cells. […] In general, the number +/-, +, 2+, 3+, 4+, 5+ refer to approximately 5%, 10%, 20%, 30%, 40% and 50% GFP positive cells. The % of GFP induction in the above assay is dependent not only the relative strength of the SAR but also, among other factors, on the relative level of expression of the SAR in the JNG cells and the relative level of expression of the target antigen in the target cell line. To control for the difference in gene transduction efficiency of the different SAR constructs, the experiment was conducted with JNG cells transduced with SAR constructs co-expressing a drug resistance gene (e.g., puromycin or PAC) followed by drug selection to generate a stable population of SAR-expressing cells. It is to be noted that the drug resistance gene (e.g., PAC) in the SAR constructs is optional and in vivo studies were conducted with SAR constructs lacking the PAC gene."}, "L363 cells": {"system": "L363 cells", "assay": "JNG assay, co-culture with L363 cells", "summary_of_the_method": "as §1"}, "Nalm6 cells": {"system": "Nalm6 cells", "assay": "JNG assay, co-culture with Nalm6 cells", "conditions": "co-culture with Nalm6", "summary_of_the_method": "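Stable SAR lines in NFAT-GFP Jurkat background; coculture with target line ~4–18 h, E:T ~1:2; flow readout of GFP; positive if %GFP+ exceeds parental line; semi-quantitative grading +/- (~5%) through 5+ (~50%).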"}}, "data": [{"molecule": "22131 (protein) MALPVTALLLPLALLLHAARPACEVQLLESGGGLIQPGGSLRLSCAASGFTFSSHAMTWVRQAPGKGLEWVSAISGSGDYTHYADSVKGRFTISRDNSKNTVYLQMNSLRAEDSAVYYCAKDEDGGSLLGHRGQGTLVTVSSGTGGGGSGGGGSGGGGSEFDIQMTQSPSSLSASVGDRVTITCKASDHINNWLAWYQQKPGQAPKLLIYGATTLETGVPSRFSGSGSGTDYTLTISSLQPEDFATYYCQQSWNTPWTFGQGTKLEIKRLEDLKNVFPPEVAVFEPSKAEIAHTQKATLVCLATGFYPDHVELSWWVNGKEVHSGVCTDPQPLKEQPALNDSRYCLSSRLRVSATFWQNPRNHFRCQVQFYGLSENDEWTQDRAKPVTQIVSAEAWGRADCGITSASYHQGVLSATILYEILLGKATLYAVLVSALVLMAMVKRKDSRGRAKRSGSGATNFSLLKQAGDVEENPGPTSATMDWIWRILFLVGAATGAHSGPQVQLQESGGGLAQAGGSLRLSCAASGRTFSMGWFRQAPGKEREFVAAITYSGGSPYYASSVRGRFTISRDNAKNTVYLQMNSLKPEDTAVYYCAANPTYGSDWNAENWGQGTQVTVSSGSGGGGSGGGGSGGGGSFEQVQLQQPGAELVKPGASVKMSCKASGYAFSSYWINWMKQKPGQGLEWIGQIYPGDGDTNYNGKFKGRATLTADTSSSTAYMQLSSLTSEDSAVYFCARSITTVVGCAMDYWGQGTSVTVSSTRIQNPDPAVYQLRDSKSSDKSVCLFTDFDSQTNVSQSKDSDVYITDKCVLDMRSMDFKSNSAVAWSNKSDFACANAFNNSIIPEDTFFPSSDVPCDVKLVEKSFETDTNLNFQNLSVIGFRILLLKVAGFNLLMTLRLWSSRAKRSGSGVKQTLNFDLLKLAGDVESNPGPSRGHMTEYKPTVRLATRDDVPRAVRTLAAAFADYPATRHTVDPDRHIERVTELQELFLTRVGLDIGKVWVADDGAAVAVWTTPESVEAGAVFAEIGPRMAELSGSRLAAQQQMEGLLAPHRPKEPAWFLATVGVSPDHQGKGLGSAVVLPGVEAAERAGVPAFLETSAPRNLPFYERLGFTVTADVEVPEGPRTWCMTRKPGA", "values": [{"measurement": "NFAT-GFP ASSAY: Raji", "setting": "RAJI cells; JNG cells expressing construct, co-culture with Raji", "result": "4+ (refer to approximately 5%, 10%, 20%, 30%, 40% and 50% GFP positive cells)"}, {"measurement": "NFAT-GFP ASSAY: Raji-CD19-KO", "setting": "RAJI-CD19-KO cells", "result": "5+ (refer to approximately 5%, 10%, 20%, 30%, 40% and 50% GFP positive cells)"}, {"measurement": "NFAT-GFP ASSAY: L363", "setting": "L363 cells; co-culture with L363", "result": "5+ (refer to approximately 5%, 10%, 20%, 30%, 40% and 50% GFP positive cells)"}]}, {"molecule": "CD8SP-BCMA-FHVH-93-G4S-TCR-Vg9-F-P2A-IgHSP-CD20-vHH2-HCD25-G4S-TCR-Vd2-F-F2A-PAC (protein) MALPVTALLLPLALLLHAARPACEVQLLESGGGLIQPGGSLRLSCAASGFTFSSHAMTWVRQAPGKGLEWVSAISGSGDYTHYADSVKGRFTISRDNSKNTVYLQMNSLRAEDSAVYYCAKDEDGGSLLGHRGQGTLVTVSSGTGGGGSGGGGSGGGGSEFAGHLEQPQISSTKTLSKTARLECVVSGITISATSVYWYRERPGEVIQFLVSISYDGTVRKESGIPSGKFEVDRIPETSTSTLTIHNVEKQDIATYYCALWEAQQELGKKIKVFGPGTKLIITDKQLDKQLDADVSPKPTIFLPSIAETKLQKAGTYLCLLEKFFPDVIKIHWQEKKSNTILGSQEGNTMKTNDTYMKFSWLTVPEKSLDKEHRCIVRHENNKNGVDQEIIFPPIKTDVITMDPKDNCSKDANDTLLLQLTNTSAYYMYLLLLLKSVVYFAIITCCLLRRTAFCCNGEKSRAKRSGSGATNFSLLKQAGDVEENPGPTSATMDWIWRILFLVGAATGAHSGPQVQLQESGGGLAQAGGSLRLSCAASGRTFSMGWFRQAPGKEREFVAAITYSGGSPYYASSVRGRFTISRDNAKNTVYLQMNSLKPEDTAVYYCAANPTYGSDWNAENWGQGTQVTVSSGSGGGGSGGGGSGGGGSFEAIELVPEHQTVPVSIGVPATLRCSMKGEAIGNYYINWYRKTQGNTMTFIYREKDIYGPGFKDNFQGDIDIAKNLAVLKILAPSERDEGSYYCACDTLGMGGEYTDKLIFGKGTRVTVEPRSQPHTKPSVFVMKNGTNVACLVKEFYPKDIRINLVSSKKITEFDPAIVISPSGKYNAVKLGKYEDSNSVTCSVQHDNKTVHSTDFEVKTDSTDHVKPKETENTKQPSKSCHKPKAIVHTEKVNMMSLTVLGLRMLFAKTVAVNFLLTAKLFFLRAKRSGSGVKQTLNFDLLKLAGDVESNPGPSRAHMTEYKPTVRLATRDDVPRAVRTLAAAFADYPATRHTVDPDRHIERVTELQELFLTRVGLDIGKVWVADDGAAVAVWTTPESVEAGAVFAEIGPRMAELSGSRLAAQQQMEGLLAPHRPKEPAWFLATVGVSPDHQGKGLGSAVVLPGVEAAERAGVPAFLETSAPRNLPFYERLGFTVTADVEVPEGPRTWCMTRKPGA", "values": [{"measurement": "GFP induction / activity", "setting": "RAJI cells; co-culture with RAJI cells", "result": "robust induction of GFP"}, {"measurement": "GFP induction / activity", "setting": "RAJI-CD19-KO cells; co-culture with RAJI-CD19-KO cells", "result": "robust induction of GFP"}, {"measurement": "GFP induction / activity", "setting": "L363 cells; co-culture with L363 cells", "result": "robust induction of GFP"}]}, {"molecule": "22201 (protein) MALPVTALLLPLALLLHAARPACEVQLLESGGGLIQPGGSLRLSCAASGFTFSSHAMTWVRQAPGKGLEWVSAISGSGDYTHYADSVKGRFTISRDNSKNTVYLQMNSLRAEDSAVYYCAKDEDGGSLLGHRGQGTLVTVSSGTGGGGSGGGGSGGGGSEFAGHLEQPQISSTKTLSKTARLECVVSGITISATSVYWYRERPGEVIQFLVSISYDGTVRKESGIPSGKFEVDRIPETSTSTLTIHNVEKQDIATYYCALWEAQQELGKKIKVFGPGTKLIITDKQLDKQLDADVSPKPTIFLPSIAETKLQKAGTYLCLLEKFFPDVIKIHWQEKKSNTILGSQEGNTMKTNDTYMKFSWLTVPEKSLDKEHRCIVRHENNKNGVDQEIIFPPIKTDVITMDPKDNCSKDANDTLLLQLTNTSAYYMYLLLLLKSVVYFAIITCCLLRRTAFCCNGEKSRAKRSGSGATNFSLLKQAGDVEENPGPTSATMDWIWRILFLVGAATGAHSGPQVQLQESGGGLAQAGGSLRLSCAASGRTFSMGWFRQAPGKEREFVAAITYSGGSPYYASSVRGRFTISRDNAKNTVYLQMNSLKPEDTAVYYCAANPTYGSDWNAENWGQGTQVTVSSGSGGGGSGGGGSGGGGSFEAIELVPEHQTVPVSIGVPATLRCSMKGEAIGNYYINWYRKTQGNTMTFIYREKDIYGPGFKDNFQGDIDIAKNLAVLKILAPSERDEGSYYCACDTLGMGGEYTDKLIFGKGTRVTVEPRSQPHTKPSVFVMKNGTNVACLVKEFYPKDIRINLVSSKKITEFDPAIVISPSGKYNAVKLGKYEDSNSVTCSVQHDNKTVHSTDFEVKTDSTDHVKPKETENTKQPSKSCHKPKAIVHTEKVNMMSLTVLGLRMLFAKTVAVNFLLTAKLFFLRAKRSGSGVKQTLNFDLLKLAGDVESNPGPSRAHMTEYKPTVRLATRDDVPRAVRTLAAAFADYPATRHTVDPDRHIERVTELQELFLTRVGLDIGKVWVADDGAAVAVWTTPESVEAGAVFAEIGPRMAELSGSRLAAQQQMEGLLAPHRPKEPAWFLATVGVSPDHQGKGLGSAVVLPGVEAAERAGVPAFLETSAPRNLPFYERLGFTVTADVEVPEGPRTWCMTRKPGA", "values": [{"measurement": "NFAT-GFP ASSAY: Raji-CD19-KO", "setting": "RAJI-CD19-KO cells", "result": "2+ (refer to approximately 5%, 10%, 20%, 30%, 40% and 50% GFP positive cells)"}, {"measurement": "NFAT-GFP ASSAY: Nalm6", "setting": "Nalm6 cells", "result": "+/- (refer to approximately 5%, 10%, 20%, 30%, 40% and 50% GFP positive cells)"}]}]}
